Assay results: patent publication US20210220450A1, “TREATMENT OF AN IOP CONDITION” (The Research Foundation for The State University of New York, priority 2013, published 2021)

Key:
[1] = target: low-density-lipoprotein receptor-related protein 1 (LRP-1) (UniProt Q07954); assay: cell-based or functional assay
[2] = target: N-methyl-D-aspartate receptor (NMDAR); assay: cell-based or functional assay

Chain of UniProt Q07954 (Q07954 20-4544 limits assumed): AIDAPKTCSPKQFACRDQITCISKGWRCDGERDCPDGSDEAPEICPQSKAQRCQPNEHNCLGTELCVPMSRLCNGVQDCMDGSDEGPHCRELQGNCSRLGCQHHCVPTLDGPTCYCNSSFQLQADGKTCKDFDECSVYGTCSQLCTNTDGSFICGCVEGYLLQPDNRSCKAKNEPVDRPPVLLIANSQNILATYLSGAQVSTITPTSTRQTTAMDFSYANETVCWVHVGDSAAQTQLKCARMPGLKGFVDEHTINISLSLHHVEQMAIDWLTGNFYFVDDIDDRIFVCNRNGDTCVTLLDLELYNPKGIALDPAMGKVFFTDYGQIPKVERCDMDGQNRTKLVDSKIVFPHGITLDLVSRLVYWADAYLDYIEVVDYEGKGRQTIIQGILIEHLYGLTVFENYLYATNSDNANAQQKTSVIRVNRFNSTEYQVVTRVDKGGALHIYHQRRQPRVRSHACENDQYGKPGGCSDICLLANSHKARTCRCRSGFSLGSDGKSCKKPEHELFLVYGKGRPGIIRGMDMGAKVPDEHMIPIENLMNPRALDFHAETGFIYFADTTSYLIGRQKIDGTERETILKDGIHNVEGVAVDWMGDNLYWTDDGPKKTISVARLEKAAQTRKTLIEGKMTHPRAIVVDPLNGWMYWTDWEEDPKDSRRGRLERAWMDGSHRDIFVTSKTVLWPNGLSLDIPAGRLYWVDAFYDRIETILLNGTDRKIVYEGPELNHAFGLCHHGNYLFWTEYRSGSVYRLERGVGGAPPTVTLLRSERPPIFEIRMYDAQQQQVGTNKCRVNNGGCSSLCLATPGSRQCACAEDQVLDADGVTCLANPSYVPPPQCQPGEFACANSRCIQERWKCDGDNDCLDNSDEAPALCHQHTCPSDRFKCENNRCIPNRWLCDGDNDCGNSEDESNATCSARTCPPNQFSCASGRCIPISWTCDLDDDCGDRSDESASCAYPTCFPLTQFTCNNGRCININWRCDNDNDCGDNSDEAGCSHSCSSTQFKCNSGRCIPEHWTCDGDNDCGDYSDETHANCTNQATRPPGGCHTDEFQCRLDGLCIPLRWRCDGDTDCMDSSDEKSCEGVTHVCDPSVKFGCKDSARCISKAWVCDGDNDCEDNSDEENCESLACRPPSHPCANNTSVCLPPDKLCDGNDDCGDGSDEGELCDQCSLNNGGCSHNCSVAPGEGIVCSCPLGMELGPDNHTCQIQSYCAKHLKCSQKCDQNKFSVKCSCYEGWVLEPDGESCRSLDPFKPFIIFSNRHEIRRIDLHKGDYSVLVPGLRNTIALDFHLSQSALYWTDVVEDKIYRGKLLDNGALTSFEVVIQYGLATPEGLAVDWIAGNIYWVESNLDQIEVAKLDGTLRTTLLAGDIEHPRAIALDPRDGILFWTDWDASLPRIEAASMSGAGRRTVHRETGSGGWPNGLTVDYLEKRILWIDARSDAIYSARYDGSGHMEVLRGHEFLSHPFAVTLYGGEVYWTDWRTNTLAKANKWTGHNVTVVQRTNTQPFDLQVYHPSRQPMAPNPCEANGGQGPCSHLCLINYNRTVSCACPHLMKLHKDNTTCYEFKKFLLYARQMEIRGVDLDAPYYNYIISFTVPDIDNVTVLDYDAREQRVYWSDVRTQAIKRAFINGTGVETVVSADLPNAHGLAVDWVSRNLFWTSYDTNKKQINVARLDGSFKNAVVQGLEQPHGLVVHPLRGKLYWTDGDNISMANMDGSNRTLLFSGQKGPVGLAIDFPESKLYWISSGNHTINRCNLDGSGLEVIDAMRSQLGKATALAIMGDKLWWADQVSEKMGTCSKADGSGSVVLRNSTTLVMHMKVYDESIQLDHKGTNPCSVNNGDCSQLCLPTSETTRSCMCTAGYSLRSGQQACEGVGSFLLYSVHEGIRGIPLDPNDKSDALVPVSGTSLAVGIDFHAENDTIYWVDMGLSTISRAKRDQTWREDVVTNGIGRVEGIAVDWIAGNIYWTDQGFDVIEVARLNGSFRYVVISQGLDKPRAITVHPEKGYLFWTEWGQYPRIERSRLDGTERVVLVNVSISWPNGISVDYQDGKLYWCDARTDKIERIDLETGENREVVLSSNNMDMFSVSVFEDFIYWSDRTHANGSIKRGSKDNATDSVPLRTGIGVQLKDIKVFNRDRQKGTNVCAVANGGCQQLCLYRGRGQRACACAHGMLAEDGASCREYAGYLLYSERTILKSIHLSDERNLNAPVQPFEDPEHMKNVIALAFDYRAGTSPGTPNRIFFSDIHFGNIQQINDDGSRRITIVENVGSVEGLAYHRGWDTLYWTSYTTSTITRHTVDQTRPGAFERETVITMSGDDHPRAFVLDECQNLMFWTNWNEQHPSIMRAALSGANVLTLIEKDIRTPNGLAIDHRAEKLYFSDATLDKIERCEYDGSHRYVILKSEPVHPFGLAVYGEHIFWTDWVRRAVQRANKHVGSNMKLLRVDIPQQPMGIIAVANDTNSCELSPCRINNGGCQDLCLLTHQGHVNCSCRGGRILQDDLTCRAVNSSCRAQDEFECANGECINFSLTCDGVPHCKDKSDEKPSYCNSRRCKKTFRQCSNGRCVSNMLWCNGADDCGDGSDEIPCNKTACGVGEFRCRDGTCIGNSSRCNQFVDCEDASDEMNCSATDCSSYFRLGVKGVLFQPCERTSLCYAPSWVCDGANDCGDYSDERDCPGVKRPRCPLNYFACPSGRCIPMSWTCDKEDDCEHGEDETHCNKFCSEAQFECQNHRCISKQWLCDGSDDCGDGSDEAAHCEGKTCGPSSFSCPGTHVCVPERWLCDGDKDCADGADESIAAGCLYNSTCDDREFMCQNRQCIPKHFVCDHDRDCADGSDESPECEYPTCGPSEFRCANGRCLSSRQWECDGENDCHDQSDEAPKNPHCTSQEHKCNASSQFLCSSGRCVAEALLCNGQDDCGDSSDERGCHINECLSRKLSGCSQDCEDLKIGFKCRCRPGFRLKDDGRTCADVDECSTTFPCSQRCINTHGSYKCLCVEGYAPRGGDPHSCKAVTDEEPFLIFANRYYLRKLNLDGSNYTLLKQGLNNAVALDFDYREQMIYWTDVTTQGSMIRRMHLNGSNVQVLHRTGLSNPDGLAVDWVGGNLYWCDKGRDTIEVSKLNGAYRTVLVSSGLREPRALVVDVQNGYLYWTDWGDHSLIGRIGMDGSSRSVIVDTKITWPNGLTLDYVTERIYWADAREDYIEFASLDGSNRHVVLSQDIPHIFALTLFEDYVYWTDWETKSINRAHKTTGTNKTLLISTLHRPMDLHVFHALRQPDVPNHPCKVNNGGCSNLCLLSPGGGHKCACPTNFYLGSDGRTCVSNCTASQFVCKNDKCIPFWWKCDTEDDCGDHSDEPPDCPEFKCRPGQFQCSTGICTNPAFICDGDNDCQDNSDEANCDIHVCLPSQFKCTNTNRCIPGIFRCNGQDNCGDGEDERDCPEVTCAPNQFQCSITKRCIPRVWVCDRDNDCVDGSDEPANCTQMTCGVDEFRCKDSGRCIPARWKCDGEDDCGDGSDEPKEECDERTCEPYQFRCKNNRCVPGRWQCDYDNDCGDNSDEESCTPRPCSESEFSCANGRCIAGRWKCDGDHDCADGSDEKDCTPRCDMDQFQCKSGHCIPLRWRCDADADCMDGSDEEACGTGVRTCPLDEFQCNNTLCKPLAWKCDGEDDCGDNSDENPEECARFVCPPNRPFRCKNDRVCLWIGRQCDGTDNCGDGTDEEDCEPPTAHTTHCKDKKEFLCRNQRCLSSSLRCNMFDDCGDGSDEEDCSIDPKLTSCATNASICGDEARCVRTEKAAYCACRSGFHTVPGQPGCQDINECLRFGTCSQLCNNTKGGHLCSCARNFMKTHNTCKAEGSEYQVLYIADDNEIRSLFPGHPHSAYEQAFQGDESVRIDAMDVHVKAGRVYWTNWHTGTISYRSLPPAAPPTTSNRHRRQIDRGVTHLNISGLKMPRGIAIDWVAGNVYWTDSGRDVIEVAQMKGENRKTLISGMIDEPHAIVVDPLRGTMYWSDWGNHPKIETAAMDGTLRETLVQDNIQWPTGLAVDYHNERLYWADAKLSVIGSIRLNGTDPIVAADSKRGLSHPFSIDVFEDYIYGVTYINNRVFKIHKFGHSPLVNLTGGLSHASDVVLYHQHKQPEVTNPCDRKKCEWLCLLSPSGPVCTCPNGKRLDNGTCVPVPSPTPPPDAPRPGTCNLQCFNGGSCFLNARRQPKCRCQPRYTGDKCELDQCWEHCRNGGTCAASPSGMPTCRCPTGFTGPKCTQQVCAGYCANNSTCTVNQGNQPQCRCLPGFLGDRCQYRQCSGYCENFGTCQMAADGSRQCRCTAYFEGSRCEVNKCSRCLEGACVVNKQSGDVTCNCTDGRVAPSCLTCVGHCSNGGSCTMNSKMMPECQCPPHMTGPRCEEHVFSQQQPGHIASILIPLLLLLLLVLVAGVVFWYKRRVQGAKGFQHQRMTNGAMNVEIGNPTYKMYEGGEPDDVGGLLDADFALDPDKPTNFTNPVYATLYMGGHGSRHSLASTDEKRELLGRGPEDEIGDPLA

Simulated outflow facility of HTM cells in ACOS, PA+NE-tPA (no inhibitor) (µl/min/mmHg/mm^2) [1]: 0.55
Simulated outflow facility of HTM cells in ACOS, PA+NE-tPA+MK-801+RAP (both inhibitors) (µl/min/mmHg/mm^2) [1]: 0.33
Simulated outflow facility of HTM cells in ACOS, PA+NE-tPA+RAP (inhibitor of LRP1) (µl/min/mmHg/mm^2) [1]: 0.27
Simulated outflow facility of HTM cells in ACOS, PA+NE-tPA (no inhibitor) (µl/min/mmHg/mm^2) [2]: 0.55
Simulated outflow facility of HTM cells in ACOS, PA+NE-tPA+MK-801 (inhibitor of NMDA receptor) (µl/min/mmHg/mm^2) [2]: 0.29
Simulated outflow facility of HTM cells in ACOS, PA+NE-tPA+MK-801+RAP (both inhibitors) (µl/min/mmHg/mm^2) [2]: 0.33
Substance: non-enzymatically active tPA (NE-tPA/S478A-tPA) (from UniProt P00750 36-562)
